Consider 6 molecules from US20010029293A1.

For the assay, the target named is CD18-independent counterreceptor for ICAM-R on Jurkat cells. The assay can be described thus: cell adhesion to coated shICAM-R, peptide 1-2 mg/ml.
Take GDQRL [ICAM-1 peptide 228-232 (GDQRL)]: the % Inhibition CD18-Independent Binding (Jurkat) was 22%.

EKIALET [ICAM-R peptide 32-38] returned a % Inhibition CD18-Independent Binding (Jurkat) of 10%.

As to GERREA [ICAM-R peptide 271-276], the % Inhibition CD18-Independent Binding (Jurkat) is 11%.

The molecule GDQML [ICAM-R peptide 230-234 (GDQML)] registered a % Inhibition CD18-Independent Binding (Jurkat) of 36%.

Molecule DGQST [ICAM-1 peptide 70-74 (DGQST)] gave a % Inhibition CD18-Independent Binding (Jurkat) of 9%.

Molecule NGSQI [ICAM-R peptide 72-76 (NGSQI)] gave a % Inhibition CD18-Independent Binding (Jurkat) of 17%.
